Laboratory results taken from patent US6045793, “Recombinant ribonuclease proteins” (dated 2000).

T1: Native ONCONASE (Rana pipiens, pyroglutamyl amino acid residue (<Glu-1) at the amino terminus)
T1 chain: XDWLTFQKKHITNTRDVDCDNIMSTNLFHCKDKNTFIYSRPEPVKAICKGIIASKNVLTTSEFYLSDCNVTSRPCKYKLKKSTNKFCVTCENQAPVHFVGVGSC

T2: recombinant human eosinophil-derived neurotoxin (human)
T2 chain: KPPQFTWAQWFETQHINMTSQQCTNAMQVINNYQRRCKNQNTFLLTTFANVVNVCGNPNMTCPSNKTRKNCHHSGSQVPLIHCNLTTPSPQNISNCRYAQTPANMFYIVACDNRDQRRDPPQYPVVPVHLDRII

T3: [Met-(-1)]rOnc (Rana pipiens)
T3 chain: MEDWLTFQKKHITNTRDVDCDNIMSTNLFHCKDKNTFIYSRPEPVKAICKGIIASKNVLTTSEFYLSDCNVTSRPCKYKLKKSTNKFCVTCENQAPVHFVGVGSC

T4: rEDN(1-21) rOnc (human; Rana pipiens)
T4 chain: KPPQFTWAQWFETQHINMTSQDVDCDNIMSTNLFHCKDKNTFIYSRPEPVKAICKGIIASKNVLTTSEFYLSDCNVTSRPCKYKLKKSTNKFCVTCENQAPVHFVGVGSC

T5: rEDN(1-21) rOncG26 (human EDN part, Rana pipiens Onc part)
T5 chain: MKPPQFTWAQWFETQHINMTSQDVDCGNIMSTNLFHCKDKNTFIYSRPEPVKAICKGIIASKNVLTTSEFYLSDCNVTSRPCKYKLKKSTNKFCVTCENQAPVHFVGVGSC

B1: Placental ribonuclease inhibitor (other)
chain: SLDIQSLDIQCEELSDARWAELLPLLQQCQVVRLDDCGLTEARCKDISSALRVNPALAELNLRSNELGDVGVHCVLQGLQTPSCKIQKLSLQNCCLTGAGCGVLSSTLRTLPTLQELHLSDNLLGDAGLQLLCEGLLDPQCRLEKLQLEYCSLSAASCEPLASVLRAKPDFKELTVSNNDINEAGVRVLCQGLKDSPCQLEALKLESCGVTSDNCRDLCGIVASKASLRELALGSNKLGDVGMAELCPGLLHPSSRLRTLWIWECGITAKGCGDLCRVLRAKESLKELSLAGNELGDEGARLLCETLLEPGCQLESLWVKSCSFTAACCSHFSSVLAQNRFLLELQISNNRLEDAGVRELCQGLGQPGSVLRVLWLADCDVSDSSCSSLAATLLANHSLRELDLSNNCLGDAGILQLVESVRQPGCLLEQLVLYDIYWSEEMEDRLQALEKDKPSLRVIS
B2: E6FB[Met-(-1)Ser]rOnc (scFv)
chain: DIKMTQSPSSMYASLGERVTFTCKASQDINNYLCWFQQKPGKSPKTLIYRANRLVDGVPSRFSGSGSGQDYSLTISSLEYEDMGIYYCLQYDEFPYTFGGGTKLEIKGGGGSGGGGSGGGGSEVQLQQSGTVLARPGASVKMSCKASGYTFSSYWMHWIKQRPGQGLDWIVAIDPRNSDTIYNPQFKHKAKLTAVTSTSTAYMELNSLTNEDSAVYYCTPLYYFDSWGQGTTLTVSSAKKLNDAQAPKSDMSDWLTFQKKHITNTRDVDCDNIMSTNLFHCKDKNTFIYSRPEPVKAICKGIIASKNVLTTSEFYLSDCNVTSRPCKYKLKKSTNKFCVTCENQAPVHFVGVGSC
B3: [Met-(-1)Glu]rOncFBE6 (scFv)
chain: MEDWLTFQKKHITNTRDVDCDNIMSTNLFHCKDKNTFIYSRPEPVKAICKGIIASKNVLTTSEFYLSDCNVTSRPCKYKLKKSTNKFCVTCENQAPVHFVGVGSCAKKLNDAQAPKSDDIKMTQSPSSMYASLGERVTFTCKASQDINNYLCWFQQKPGKSPKTLIYRANRLVDGVPSRFSGSGSGQDYSLTISSLEYEDMGIYYCLQYDEFPYTFGGGTKLEIKGGGGSGGGGSGGGGSEVQLQQSGTVLARPGASVKMSCKASGYTFSSYWMHWIKQRPGQGLDWIVAIDPRNSDTIYNPQFKHKAKLTAVTSTSTAYMELNSLTNEDSAVYYCTPLYYFDSWGQGTTLTVSSHHH

Legend:
Experiment in all cases: cell-based or functional assay
Native ONCONASE = molecular target: T1, Native ONCONASE
[1] = molecular target: T2, recombinant human eosinophil-derived …
[Met-(-1)]rOnc = molecular target: T3, [Met-(-1)]rOnc
rEDN(1-21) rOnc = molecular target: T4, rEDN(1-21) rOnc
rEDN(1-21) rOncG26 = molecular target: T5, rEDN(1-21) rOncG26
[2] = molecular target: transferrin receptor on SF539 human glioma cells (human, UniProt P02786)

| Binder | Fold Difference of IC50 (ng/ml) in rabbit reticulocyte lysate, (+)PRI against (-)PRI (Native ONCONASE) [fold] | IC50 (ng/ml) of the RNase for inhibition of protein synthesis in rabbit reticulocyte lysate, (+)PRI (Native ONCONASE) [ng/mL] | Fold Difference of IC50 (ng/ml) in rabbit reticulocyte lysate, (+)PRI against (-)PRI [1] [fold] | Fold Difference of IC50 (ng/ml) in rabbit reticulocyte lysate, (+)PRI against (-)PRI ([Met-(-1)]rOnc) [fold] | IC50 (ng/ml) of the RNase for inhibition of protein synthesis in rabbit reticulocyte lysate, (+)PRI ([Met-(-1)]rOnc) [ng/mL] | Fold Difference of IC50 (ng/ml) in rabbit reticulocyte lysate, (+)PRI against (-)PRI (rEDN(1-21) rOnc) [fold] | IC50 (ng/ml) of the RNase for inhibition of protein synthesis in rabbit reticulocyte lysate, (+)PRI (rEDN(1-21) rOnc) [ng/mL] | Fold Difference of IC50 (ng/ml) in rabbit reticulocyte lysate, (+)PRI against (-)PRI (rEDN(1-21) rOncG26) [fold] | IC50 (ng/ml) of the RNase for inhibition of protein synthesis in rabbit reticulocyte lysate, (+)PRI (rEDN(1-21) rOncG26) [ng/mL] | IC50 (nM), inhibition of protein synthesis in SF539 human glioma cells [2] [nM] |
| --- | --- | --- | --- | --- | --- | --- | --- | --- | --- | --- |
| B1 | 1.2 | 0.24 | > 30.7 | 1.4 | 140 | 2 | 3200 | 21 | 600 |  |
| B2 |  |  |  |  |  |  |  |  |  | 0.22 |
| B3 |  |  |  |  |  |  |  |  |  | 0.5 |
